Data published in article PMC8901805.

Molecular target: FITC-BIM SAHBA2
Assay: fluorescence polarisation; direct binding: FITC-BIM SAHBA2 (50 nM) with serial dilutions of full-length BAX, read at 20 min

EC75: 500 nM
Substance: Human, recombinant and tagless BAX (from UniProt Q07812 1-192) (natural protein)
